Here are results for one substance from patent EP1407030B1.

The target in the assay is plasminogen. The assay is described as follows: cell-based or functional assay.

For the substance “phage-displayed recombinant K2S (K2S-gp3 fusion protein on VCSM13 filamentous phage) (from UniProt P00750 209-562)”, the fibrinogen-dependent enzymatic activity (amidolytic assay with plasminogen and S-2251) was < 0.25 IU/ml.
